Experimental data taken from patent US5747447.

T1: vitronectin receptor (M21 melanoma cell attachment assay) (Homo sapiens (Human)), P06756
T1 chain 1: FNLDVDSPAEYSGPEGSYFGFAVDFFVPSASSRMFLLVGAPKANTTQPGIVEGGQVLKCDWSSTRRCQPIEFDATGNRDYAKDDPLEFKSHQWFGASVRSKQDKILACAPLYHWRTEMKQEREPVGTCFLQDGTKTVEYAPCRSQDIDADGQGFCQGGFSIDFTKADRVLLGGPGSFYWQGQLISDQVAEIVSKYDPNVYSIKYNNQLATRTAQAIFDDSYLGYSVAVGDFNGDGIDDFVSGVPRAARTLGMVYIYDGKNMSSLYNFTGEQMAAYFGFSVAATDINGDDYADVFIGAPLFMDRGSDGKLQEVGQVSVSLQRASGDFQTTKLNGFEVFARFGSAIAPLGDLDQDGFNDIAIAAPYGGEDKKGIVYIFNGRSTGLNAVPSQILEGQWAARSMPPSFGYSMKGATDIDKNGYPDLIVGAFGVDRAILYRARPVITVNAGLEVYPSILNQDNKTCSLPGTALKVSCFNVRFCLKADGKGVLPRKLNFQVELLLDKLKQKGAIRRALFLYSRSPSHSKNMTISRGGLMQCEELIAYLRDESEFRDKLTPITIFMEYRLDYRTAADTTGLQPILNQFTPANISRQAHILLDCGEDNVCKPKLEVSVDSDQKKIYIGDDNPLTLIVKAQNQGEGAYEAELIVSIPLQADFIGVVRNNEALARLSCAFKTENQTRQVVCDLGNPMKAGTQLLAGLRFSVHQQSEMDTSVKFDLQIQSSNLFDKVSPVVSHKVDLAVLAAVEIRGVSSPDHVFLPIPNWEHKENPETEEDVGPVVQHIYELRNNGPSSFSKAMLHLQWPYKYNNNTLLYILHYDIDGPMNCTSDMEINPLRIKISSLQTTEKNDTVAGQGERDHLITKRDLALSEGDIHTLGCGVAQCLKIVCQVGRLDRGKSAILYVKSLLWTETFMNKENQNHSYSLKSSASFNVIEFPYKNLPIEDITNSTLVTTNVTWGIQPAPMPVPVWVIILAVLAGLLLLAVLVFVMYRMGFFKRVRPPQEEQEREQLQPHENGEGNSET
T1 chain 2: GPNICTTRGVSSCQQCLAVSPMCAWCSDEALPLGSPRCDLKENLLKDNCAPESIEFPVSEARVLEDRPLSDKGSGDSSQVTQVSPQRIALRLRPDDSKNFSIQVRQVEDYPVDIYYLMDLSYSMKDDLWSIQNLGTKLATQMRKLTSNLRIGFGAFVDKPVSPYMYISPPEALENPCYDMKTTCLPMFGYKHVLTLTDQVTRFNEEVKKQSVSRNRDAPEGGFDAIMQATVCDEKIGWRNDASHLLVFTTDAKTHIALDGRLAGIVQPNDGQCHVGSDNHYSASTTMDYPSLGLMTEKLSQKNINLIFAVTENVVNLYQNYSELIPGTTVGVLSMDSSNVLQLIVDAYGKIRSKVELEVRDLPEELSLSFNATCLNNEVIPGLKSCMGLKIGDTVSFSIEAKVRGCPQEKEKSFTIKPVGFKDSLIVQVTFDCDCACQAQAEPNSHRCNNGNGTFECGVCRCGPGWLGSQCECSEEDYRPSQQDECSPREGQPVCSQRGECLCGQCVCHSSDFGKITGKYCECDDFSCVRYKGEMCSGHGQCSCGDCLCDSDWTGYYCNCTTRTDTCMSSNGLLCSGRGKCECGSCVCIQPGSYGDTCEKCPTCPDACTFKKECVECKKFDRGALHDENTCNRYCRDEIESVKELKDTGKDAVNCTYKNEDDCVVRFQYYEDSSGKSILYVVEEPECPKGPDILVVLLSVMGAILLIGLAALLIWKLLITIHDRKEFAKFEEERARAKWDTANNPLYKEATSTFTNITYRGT


Tests used:
[1] = biological target: T1, vitronectin receptor (M21 melanoma cell …)
[2] = biological target: GP IIb-IIIa on human platelets (human), P08514

Binder	M21 cell attachment to vitronectin [1]	Appr, IC50 (uM): inhibition of ADP-induced human platelet aggregation [2]
GCGKGDWPCA (modifications not checked) [analog #3]	> 60 µM	–
CGKGDWPC (modifications not checked) [analog #5]	–	5 µM
GCKGDWPCA (modifications not checked) [analog #4]	–	5 µM
